Reference: article PMC7610489

Biological target: P4-FAM, N-terminally fluorescein-labelled P4 peptide (Streptococcus cristatus)
Assay: MST

Substance	Kd [µM]
RagAB complex purified from wild-type P. gingivalis W83, 8xHis-tag on the C terminus of RagB	2
RagAB from P. gingivalis ATCC 33277 (complex)	0.2
